According to patent publication US20150329606A1 (COMMISSARIAT A L ENERGIE ATOMIQUE ET AUX ENERGIES …, published 2015):

Biological target: T1, C1q derived from serum (human, UniProt P02745 23-245; P02746 28-253; P02747 29-245)
T1 construct: mature; Native C1q from serum, the comparator in SPR; The SPR paragraph says only 'serum C1q'; also called serC1q; serum C1q
Test: SPR, C1q immobilized on CM5 chip, tetramer injected at 1-24 nM

T1 sequence (P02745 23-245, chain 1 of 3): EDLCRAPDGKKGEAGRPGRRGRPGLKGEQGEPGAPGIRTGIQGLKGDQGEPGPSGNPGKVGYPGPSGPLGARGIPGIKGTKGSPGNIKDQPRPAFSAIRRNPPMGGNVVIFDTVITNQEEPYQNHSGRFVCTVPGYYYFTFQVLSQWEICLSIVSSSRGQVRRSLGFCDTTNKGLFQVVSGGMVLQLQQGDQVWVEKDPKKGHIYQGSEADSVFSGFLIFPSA
T1 sequence (P02746 28-253, chain 2 of 3): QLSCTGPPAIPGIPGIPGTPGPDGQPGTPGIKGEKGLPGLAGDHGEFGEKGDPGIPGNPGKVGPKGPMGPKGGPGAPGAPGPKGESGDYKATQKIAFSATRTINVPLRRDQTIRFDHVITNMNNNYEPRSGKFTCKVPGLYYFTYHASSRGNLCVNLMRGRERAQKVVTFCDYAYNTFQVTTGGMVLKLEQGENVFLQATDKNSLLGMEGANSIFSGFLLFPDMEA
T1 sequence (P02747 29-245, chain 3 of 3): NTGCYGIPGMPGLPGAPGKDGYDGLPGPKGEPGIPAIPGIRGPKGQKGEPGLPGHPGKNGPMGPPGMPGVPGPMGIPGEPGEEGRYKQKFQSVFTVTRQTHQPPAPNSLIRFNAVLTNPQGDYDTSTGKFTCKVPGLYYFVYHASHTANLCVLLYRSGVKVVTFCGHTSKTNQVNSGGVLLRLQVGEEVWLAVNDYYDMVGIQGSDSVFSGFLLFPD

Kd: 3.12 nM
koff: 0.00212 s⁻¹
kon: 681000 M⁻¹ s⁻¹
B1: C1s-C1r-C1r-C1s tetramer (enzyme)
chain 1: SIPIPQKLFGEVTSPLFPKPYPNNFETTTVITVPTGYRVKLVFQQFDLEPSEGCFYDYVKISADKKSLGRFCGQLGSPLGNPPGKKEFMSQGNKMLLTFHTDFSNEENGTIMFYKGFLAYYQAVDLDECASRSKSGEEDPQPQCQHLCHNYVGGYFCSCRPGYELQEDTHSCQAECSSELYTEASGYISSLEYPRSYPPDLRCNYSIRVERGLTLHLKFLEPFDIDDHQQVHCPYDQLQIYANGKNIGEFCGKQRPPDLDTSSNAVDLLFFTDESGDSRGWKLRYTTEIIKCPQPKTLDEFTIIQNLQPQYQFRDYFIATCKQGYQLIEGNQVLHSFTAVCQDDGTWHRAMPRCKIKDCGQPRNLPNGDFRYTTTMGVNTYKARIQYYCHEPYYKMQTRAGSRESEQGVYTCTAQGIWKNEQKGEKIPRCLPVCGKPVNPVEQRQRIIGGQKAKMGNFPWQVFTNIHGRGGGALLGDRWILTAAHTLYPKEHEAQSNASLDVFLGHTNVEELMKLGNHPIRRVSVHPDYRQDESYNFEGDIALLELENSVTLGPNLLPICLPDNDTFYDLGLMGYVSGFGVMEEKIAHDLRFVRLPVANPQACENWLRGKNRMDVFSQNMFCAGHPSLKQDACQGDSGGVFAVRDPNTDRWVATGIVSWGIGCSRGYGFYTKVLNYVDWIKKEMEEED
chain 2: EPTMYGEILSPNYPQAYPSEVEKSWDIEVPEGYGIHLYFTHLDIELSENCAYDSVQIISGDTEEGRLCGQRSSNNPHSPIVEEFQVPYNKLQVIFKSDFSNEERFTGFAAYYVATDINECTDFVDVPCSHFCNNFIGGYFCSCPPEYFLHDDMKNCGVNCSGDVFTALIGEIASPNYPKPYPENSRCEYQIRLEKGFQVVVTLRREDFDVEAADSAGNCLDSLVFVAGDRQFGPYCGHGFPGPLNIETKSNALDIIFQTDLTGQKKGWKLRYHGDPMPCPKEDTPNSVWEPAKAKYVFRDVVQITCLDGFEVVEGRVGATSFYSTCQSNGKWSNSKLKCQPVDCGIPESIENGKVEDPESTLFGSVIRYTCEEPYYYMENGGGGEYHCAGNGSWVNEVLGPELPKCVPVCGVPREPFEEKQRIIGGSDADIKNFPWQVFFDNPWAGGALINEYWVLTAAHVVEGNREPTMYVGSTSVQTSRLAKSKMLTPEHVFIHPGWKLLEVPEGRTNFDNDIALVRLKDPVKMGPTVSPICLPGTSSDYNLMDGDLGLISGWGRTEKRDRAVRLKAARLPVAPLRKCKEVKVEKPTADAEAYVFTPNMICAGGEKGMDSCKGDSGGAFAVQDPNDKTKFYAAGLVSWGPQCGTYGLYTRVKNYVDWIMKTMQENSTPRED
notes: also called C1s-C1r-C1r-C1s proenzyme tetramer;2-C1s2
